Assay results: US20240368267A1 (KODIAK SCIENCES, published 2024)

Experiments:
VEGF = VEGF (UniProt P15692-4 27-191, limits assumed); experiment: cell-based or functional assay
recombinant human IL-6 [1] = target: T1, recombinant human IL-6 (human, UniProt P05231 30-212); experiment: SPR Biacore, purified dual inhibitor captured on Protein A, IL-6 analyte, 37 C
T1 construct: Analyte in the Biacore assays; also called interleukin-6
T1 sequence (P05231 30-212 limits assumed): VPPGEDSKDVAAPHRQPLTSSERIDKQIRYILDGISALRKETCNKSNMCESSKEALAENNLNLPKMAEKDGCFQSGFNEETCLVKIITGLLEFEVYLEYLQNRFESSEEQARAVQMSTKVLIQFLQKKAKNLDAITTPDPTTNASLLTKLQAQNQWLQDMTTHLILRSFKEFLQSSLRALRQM

recombinant human IL-6 [2] = target: T1, recombinant human IL-6; experiment: SPR Biacore, cell supernatant dual inhibitor captured on Protein A, IL-6 analyte, 25 C
recombinant human IL-6 [3] = target: T2, recombinant human IL-6 (human, UniProt P05231 30-212); experiment: Biacore at 37 C, antibody captured on Protein A, IL-6 as analyte
T2 construct: bought protein; also called interleukin-6
T2 sequence (P05231 30-212 limits assumed): as above

Sequence of VEGF (P15692 other isoform, or with tags, fused parts or gaps limits assumed): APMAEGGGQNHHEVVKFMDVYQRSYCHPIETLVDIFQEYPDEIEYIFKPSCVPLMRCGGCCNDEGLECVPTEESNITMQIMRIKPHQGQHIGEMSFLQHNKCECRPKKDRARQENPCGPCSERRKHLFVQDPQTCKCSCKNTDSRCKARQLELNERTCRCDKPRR

B1: VEGFR-AntiIL6 (heavy chain of sequences 1A-2A-3H, light chain of sequence 4A) (bispecific antibody)
fusion: SDTGRPFVEMYSEIPEIIHMTEGRELVIPCRVTSPNITVTLKKFPLDTLIPDGKRIIWDSRKGFIISNATYKEIGLLTCEATVNGHLYKTNYLTHRQTNTIIDVVLSPSHGIELSVGEKLVLNCTARTELNVGIDFNWEYPSSKHQHKKLVNRDLKTQSGSEMKKFLSTLTIDGVTRSDQGLYTCAASSGLMTKKNSTFVRVHEKGGGGSGGGGSEVQLVESGGGLVQPGGSLRLSCAASGFTFSPFAISWVRQAPGKGLEWVAKISPGGSWTYYSDTVTDRFTFSLDTSKSTAYLQMNSLRAEDTAVYYCARQLWGYYALDVWGQGTLVTVSSASTKGPSVFPLAPSSKSTSGGTAALGCLVKDYFPEPVTVSWNSGALTSGVHTFPAVLQSSGLYSLSSVVTVPSSSLGTQTYICNVNHKPSNTKVDKKVEPKSCDKTHTCPPCPAPEAAGAPSVFLFPPKPKDTLMISRTPEVTCVVVDVSHEDPEVKFNWYVDGVEVHNAKTKPREEQYNSTYRVVSVLTVLHQDWLNGKEYKCKVSNKALPAPIEKTISKAKGQPREPQVYTLPPSREEMTKNQVSLTCLVKGFYPSDIAVEWESNGQPENNYKTTPPVLDSDGSFFLYSKLTVDKSRWQQGNVFSCSVMHEALHNHYTQKSLSCSPGK
light: DIQLTQSPSSLSASVGDRVTITCSASISVSYLYWYQQKPGKAPKLLIYDDSSLASGVPSRFSGSGSGTDFTLTISSLQPEDFATYYCQQWSGYPYTFGQGTKVEIKRTVAAPSVFIFPPSDEQLKSGTASVVCLLNNFYPREAKVQWKVDNALQSGNSQESVTEQDSKDSTYSLSSTLTLSKADYEKHKVYACEVTHQGLSSPVTKSFNRGEC
VEGF
  cell-based VEGF stimulated VEGFR reporter assay (KDR/VEGF HEK293 cells, luminescence), IC50: 0.18 nM

B2: dual inhibitor variant L of Table 2.1 (AntiIL-6-VEGF Trap) (other)
heavy: EVQLVESGGGLVQPGGSLRLSCAASGFTFSPFAWSWVRQAPGKGLEWVAKISPGGSWTYYSDTVTDRFTFSLDTSKSTAYLQMNSLRAEDTAVYYCARQLWGYYALDVWGQGTLVTVSSASTKGPSVFPLAPSSKSTSGGTAALGCLVKDYFPEPVTVSWNSGALTSGVHTFPAVLQSSGLYSLSSVVTVPSSSLGTQTYICNVNHKPSNTKVDKKVEPKSCGGGGSGGGGSSDTGRPFVEMYSEIPEIIHMTEGRELVIPCRVTSPNITVTLKKFPLDTLIPDGKRIIWDSRKGFIISNATYKEIGLLTCEATVNGHLYKTNYLTHRQTNTIIDVVLSPSHGIELSVGEKLVLNCTARTELNVGIDFNWEYPSSKHQHKKLVNRDLKTQSGSEMKKFLSTLTIDGVTRSDQGLYTCAASSGLMTKKNSTFVRVHEKDKTHTCPPCPAPEAAGAPSVFLFPPKPKDTLMISRTPEVTCVVVDVSHEDPEVKFNWYVDGVEVHNAKTKPREEQYNSTYRVVSVLTVLHQDWLNGKEYKCKVSNKALPAPIEKTISKAKGQPREPQVYTLPPSREEMTKNQVSLTCLVKGFYPSDIAVEWESNGQPENNYKTTPPVLDSDGSFFLYSKLTVDKSRWQQGNVFSCSVMHEALHNHYTQKSLSCSPGK
light: DIQLTQSPSSLSASVGDRVTITCSASISVSYLYWYQQKPGKAPKLLIYDDSNLASGVPSRFSGSGSGTDFTLTISSLQPEDFATYYCQQWSGYPYTFGQGTKVEIKRTVAAPSVFIFPPSDEQLKSGTASVVCLLNNFYPREAKVQWKVDNALQSGNSQESVTEQDSKDSTYSLSSTLTLSKADYEKHKVYACEVTHQGLSSPVTKSFNRGEC
notes: Antibody-VEGF trap fusion, trap between Fab and Fc of the heavy chain (VH variant II); also called molecule L
Recombinant human IL-6 [1]
  Kd: 0.436 nM
  koff: 0.00065 s⁻¹
  kon: 1.49e+06 M⁻¹ s⁻¹
Recombinant human IL-6 [2]
  Kd: 0.239 nM
  koff: 0.000169 s⁻¹
  kon: 705000 M⁻¹ s⁻¹

B3: anti-IL-6 antibody, heavy chain S35H, G66D, light chain M32L/M50D/N52S/M88Q (antibody, human IgG1, V domains shown)
VH: EVQLVESGGGLVQPGGSLRLSCAASGFTFSPFAMHWVRQAPGKGLEWVAKISPGGSWTYYSDTVTDRFTFSLDTSKSTAYLQMNSLRAEDTAVYYCARQLWGYYALDIWGQGTLVTVSS
VL: DIQLTQSPSSLSASVGDRVTITCSASISVSYLYWYQQKPGKAPKLLIYDDSSLASGVPSRFSGSGSGTDFTLTISSLQPEDFATYYCQQWSGYPYTFGQGTKVEIK
notes: engineered human IgG1 as m23; also called S35H G66D double mutant with mutagenized light chain
Recombinant human IL-6 [3]
  fold increase in affinity relative to the wild-type heavy chain: ~1.3 fold

B4: anti-IL-6 antibody, heavy chain S35H, G66D, light chain wild-type (antibody, human IgG1, V domains shown)
VH: EVQLVESGGGLVQPGGSLRLSCAASGFTFSPFAMHWVRQAPGKGLEWVAKISPGGSWTYYSDTVTDRFTFSLDTSKSTAYLQMNSLRAEDTAVYYCARQLWGYYALDIWGQGTLVTVSS
VL: DIQLTQSPSSLSASVGDRVTITCSASISVSYMYWYQQKPGKAPKLLIYDMSNLASGVPSRFSGSGSGTDFTLTISSLQPEDFATYYCMQWSGYPYTFGQGTKVEIK
notes: engineered human IgG1 as m23; also called S35H G66D double mutant
Recombinant human IL-6 [3]
  fold increase in affinity relative to the wild-type heavy chain: ~2 fold
